Experimental data reported in patent US20240034774A1 (Gilead, published 2024).
Changes are numbered by the printed parent chain.

B1: 1.33.34-1 (antibody, human IgG1, kappa)
heavy: QVQLVQSGAEVKKPGASVRVSCKASGYNIRDYFIHWWRQAPGQGLQWVGWINPKTGQPNNPRQFQGRVTLTRHASWDFDTFSFYMDLKALRSDDTATYFCARQRSDYWDFDVWGSGTQVTVSSASTKGPSVFPLAPSSKSTSGGTAALGCLVKDYFPEPVTVSWNSGALTSGVHTFPAVLQSSGLYSLSSVVTVPSSSLGTQTYICNVNHKPSNTKVDKKVEPKSCDKTHTCPPCPAPELLAGPDVFLFPPKPKDTLMISRTPEVTCVVVDVSHEDPEVKFNWYVDGVEVHNAKTKPREEQYNSTYRVVSVLTVLHQDWLNGKEYKCKVSNKALPLPEEKTISKAKGQPREPQVYTLPPSREEMTKNQVSLTCLVKGFYPSDIAVEWESNGQPENNYKTTPPVLDSDGSFFLYSKLTVDKSRWQQGNVFSCSVLHEALHSHYTQKSLSLSPGK
light: DIQMTQSPSSLSASVGDTVTITCQANGYLNWYQQRRGKAPKLLIYDGSNLERGVPSRFSGRRWGQEYTLTISSLQPEDIATYFCQVYEFVTPGTRLDIKRTVAAPSVFIFPPSDEQLKSGTASVVCLLNNFYPREAKVQWKVDNALQSGNSQESVTEQDSKDSTYSLSSTLTLSKADYEKHKVYACEVTHQGLSSPVTKSFNRGEC
B2: 1.2.2-1 (antibody, human IgG1)
heavy: B1 heavy with V5L, K23E, T69S, T97V, Q118M
VL: DIQMTQSPSSLSASVGDTVTITCQANGYLNWYQQKPGKAPKLLIYDGSKLERGVPSRFSGRRWGQEYNLTINNLQPEDIATYFCQVYEFVVPGTKVDIK
B3: 1.22.1-1 (antibody, human IgG1, kappa)
heavy: QVQLLQSGAAVTKPGASVRVSCEASGYNIRDYFIHWWRQAPGQGLQWVGWINPKTGQPNNPRQFQGRVSLTRHASTFSFYMDLKALRSDDTAVYFCARQRSDYWDFDVWGSGTQVTVSSASTKGPSVFPLAPSSKSTSGGTAALGCLVKDYFPEPVTVSWNSGALTSGVHTFPAVLQSSGLYSLSSVVTVPSSSLGTQTYICNVNHKPSNTKVDKKVEPKSCDKTHTCPPCPAPELLAGPDVFLFPPKPKDTLMISRTPEVTCVVVDVSHEDPEVKFNWYVDGVEVHNAKTKPREEQYNSTYRVVSVLTVLHQDWLNGKEYKCKVSNKALPLPEEKTISKAKGQPREPQVYTLPPSREEMTKNQVSLTCLVKGFYPSDIAVEWESNGQPENNYKTTPPVLDSDGSFFLYSKLTVDKSRWQQGNVFSCSVLHEALHSHYTQKSLSLSPGK
light: B1 light with N49K, T68N, S72N, S73N, T91V, I98L
B4: 1.35.32-1 (antibody, human IgG1, kappa)
heavy: B1 heavy with I34M, L70M, K88S, A89R, S105T, S115Q, Q118M
light: B1 light with N49K, I98L
B5: 1.35.1-1 (antibody, human IgG1, kappa)
heavy: B1 heavy with I34M, L70M, K88S, A89R, S105T, S115Q, Q118M
light: B1 light with N49K, T68N, S72N, S73N, T91V, I98L
B6: 1.35.31-1 (antibody, human IgG1, kappa)
heavy: B1 heavy with I34M, L70M, K88S, A89R, S105T, S115Q, Q118M
light: B1 light with N49K, T91V, R95N, I98L
B7: 1.36.32-1 (antibody, human IgG1, kappa)
heavy: B1 heavy with I34M, L70M, F83A, K88S, A89R, S105T, S115Q, Q118M
light: B1 light with N49K, I98L
B8: 1.34.33-1 (antibody, human IgG1, kappa)
heavy: B1 heavy with T97V, S105T
light: B1 light with T91V, R95N
B9: 1.34.1-1 (antibody, human IgG1, kappa)
heavy: B1 heavy with T97V, S105T
light: B1 light with N49K, T68N, S72N, S73N, T91V, I98L
B10: 1.34.32-1 (antibody, human IgG1, kappa)
heavy: B1 heavy with T97V, S105T
light: B1 light with N49K, I98L
B11: 1.34.34-1 (antibody, human IgG1, kappa)
heavy: B1 heavy with T97V, S105T
light: B1 light
B12: 1.34.31-1 (antibody, human IgG1, kappa)
heavy: B1 heavy with T97V, S105T
light: B1 light with N49K, T91V, R95N, I98L
B13: 1.1.2-1 (antibody, human IgG1)
heavy: B1 heavy with V5L, E10A, K12T, K23E, T69S, T97V
VL: B2 VL
B14: 1v2-1 (antibody, human IgG1, kappa)
heavy: B1 heavy with V5L, E10A, K12T, K23E, T69S, F81Y, T97V
light: B1 light with N49K, T68N, S72N, S73N, T91V, I98L

Experiments:
[1] = target: gp120 SHIV SF162 P3 (SHIV SF162 P3); test: single-point ELISA at EC50 conc. of A-1
[2] = target: gp120 CAAN (HIV (CAAN)); test: single-point ELISA at EC50 conc. of A-1
[3] = target: gp120 Bal (HIV (Bal)); test: single-point ELISA at EC50 conc. of A-1
[4] = target: BSA (UniProt P02769 25-607); test: single-point ELISA, BSA control

Row | Binder | ELISA A450 [1] | ELISA A450 [2] | ELISA A450 [3] | ELISA A450 [4]
1 | B1 | 0.82 A450 | 0.95 A450 | 0.95 A450 | 0.06 A450
2 | B2 | 0.97 A450 | 0.8 A450 | 0.91 A450 | 0.06 A450
3 | B3 | 0.78 A450 | 0.87 A450 | 1.03 A450 | 0.06 A450
4 | B4 | 0.58 A450 | 1.01 A450 | 0.96 A450 | 0.06 A450
5 | B5 | 0.8 A450 | 0.87 A450 | 0.84 A450 | 0.07 A450
6 | B6 | 0.68 A450 | 0.99 A450 | 1.05 A450 | 0.07 A450
7 | B7 | 0.18 A450 | 0.5 A450 | 0.96 A450 | 0.07 A450
8 | B8 | 0.82 A450 | 1.04 A450 | 1.1 A450 | 0.06 A450
9 | B9 | 0.79 A450 | 0.9 A450 | 0.83 A450 | 0.07 A450
10 | B10 | 0.69 A450 | 0.97 A450 | 0.93 A450 | 0.06 A450
11 | B11 | 0.7 A450 | 0.88 A450 | 0.89 A450 | 0.06 A450
12 | B12 | 0.77 A450 | 0.92 A450 | 0.91 A450 | 0.06 A450
13 | B13 | 1.01 A450 | 0.93 A450 | 0.95 A450 | 0.06 A450
14 | B14 | 1.29 A450 | 1 A450 | 1.03 A450 | 0.08 A450
